# Results taken from patent US20230287598A1 (TAURUS BIOSCIENCES, published 2023).
# Residue numbers refer to the chain shown, from its start. Names may count otherwise.
# T1: CXCR1 (UniProt P25024 1-350, limits assumed)
# T1 construct: whole, on cells; DiscoveRx PathHunter cell line; any reporter tag on the receptor is not described; also called CXCR1 receptor; CXCR1-U2OS
# T1 sequence (looked up): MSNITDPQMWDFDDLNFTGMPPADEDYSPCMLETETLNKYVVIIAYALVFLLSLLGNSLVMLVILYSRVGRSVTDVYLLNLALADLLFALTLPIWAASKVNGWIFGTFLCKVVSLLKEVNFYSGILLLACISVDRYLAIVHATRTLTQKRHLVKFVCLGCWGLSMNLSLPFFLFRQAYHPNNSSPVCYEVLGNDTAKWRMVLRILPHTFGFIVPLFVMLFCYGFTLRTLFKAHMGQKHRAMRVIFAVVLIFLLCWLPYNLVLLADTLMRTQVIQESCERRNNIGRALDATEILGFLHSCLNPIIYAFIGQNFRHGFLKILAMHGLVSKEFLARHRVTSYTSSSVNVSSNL
# B1: VH4-34+CDR3-IL8_CDR1-Cow_CDR2-Cow_Q5RQ6E / VL1-51 I29V, N32G, K46R, L47T, D51G, N52D, N53T IgG (antibody)
# VH: QVQLREWGAGLLKPSETLSLTCTASGFSLSDKAVGWIRQPPGKGLEWLGSIDTGGNTGYNPSLKSRVTISVDTSKNQFSLKLSSVTAADTAVYYCTSVHQETKKYQSPRSAKELRCQCIKTYSKPFHPKFIKELRVIESGPHCANTEIIVKLSDGRELCLDPKENWVQRVVEKFLKRAENSGSGSYTYNYEWHVDVWGQGLLVTVSS
# light: QSVLTQPPSVSAAPGQKVTISCSGSSSNVGNGYVSWYQQLPGTAPRTLIYGDTKRPSGIPDRFSGSKSGTSATLGITGLQTGDEADYYCASAEDSSSNAVFGSGTTLTVLGQPKAAPSVTLFPPSSEELQANKATLVCLISDFYPGAVTVAWKADSSPVKAGVETTTPSKQSNNKYAASSYLSLTPEQWKSHRSYSCQVTHEGSTVEKTVAPTECS
# B2: VH4-34+CDR3-IL8_Q5RQ6E / VL1-51 S2A, T5N, P8S, A12G, A13S, P14L, K46R, L47T, D51G, N52D, N53T IgG (antibody)
# VH: QVQLREWGAGLLKPSETLSLTCAVYGGSFSGYYWSWIRQPPGKGLEWIGEINHSGSTNYNPSLKSRVTISVDTSKNQFSLKLSSVTAADTAVYYCTSVHQETKKYQSPRSAKELRCQCIKTYSKPFHPKFIKELRVIESGPHCANTEIIVKLSDGRELCLDPKENWVQRVVEKFLKRAENSGSGSYTYNYEWHVDVWGQGLLVTVSS
# light: B1 light with S2A, T5N, P8S, A12G, A13S, P14L, V29I, G32N
# notes: nt HC 490, LC 486
# B3: VH4-34+CDR3-IL8_CDR2-Cow_Q5RQ6E / VL1-51 S2A, T5N, P8S, A12G, A13S, P14L, K46R, L47T, D51G, N52D, N53T, K54S, P56A IgG (antibody)
# VH: B2 VH with I48L, E50S, N52D, H53T, S54G, S56N, N58G
# light: B1 light with S2A, T5N, P8S, A12G, A13S, P14L, V29I, G32N, K54S, P56A
# B4: VH4-34+CDR3-IL8_CDR1-G31DY32K_Q5RQ6E / VL1-51 S2A, T5N, P8S, A12G, A13S, P14L, D51G, N52D, N53T IgG (antibody)
# VH: B2 VH with G31D, Y32K
# light: B1 light with S2A, T5N, P8S, A12G, A13S, P14L, V29I, G32N, R46K, T47L
# B5: VH4-34+CDR3-IL8_CDR1-G31DY32K_CDR2-E50S_Q5RQ6E / VL1-51 I29V, N32G, K46R, L47T, D51G, N52D, N53T IgG (antibody)
# VH: B2 VH with G31D, Y32K, E50S
# light: B1 light
# B6: VH4-34+CDR3-IL8_CDR1-G31DY32K_Q5RQ6E / VL1-51 S2A, T5N, P8S, A12G, A13S, P14L, K46R, L47T, D51G, N52D, N53T, K54S, P56A IgG (antibody)
# VH: B2 VH with G31D, Y32K
# light: B1 light with S2A, T5N, P8S, A12G, A13S, P14L, V29I, G32N, K54S, P56A
# B7: VH4-34+CDR3-IL8_Q5RQ6E / VL1-51 S2A, T5N, P8S, A12G, A13S, P14L, K46R, L47T, D51G, N52D, N53T, K54S, P56A IgG (antibody)
# VH: B2 VH
# light: B1 light with S2A, T5N, P8S, A12G, A13S, P14L, V29I, G32N, K54S, P56A
# B8: VH4-34+CDR3-IL8_CDR2-E50S_Q5RQ6E / VL1-51 S2A, T5N, P8S, A12G, A13S, P14L, K46R, L47T, D51G, N52D, N53T, K54S, P56A IgG (antibody)
# VH: B2 VH with E50S
# light: B1 light with S2A, T5N, P8S, A12G, A13S, P14L, V29I, G32N, K54S, P56A
# B9: VH4-34+CDR3-IL8_CDR1 Cow_CDR2 E50S / VL1-51 S2A, T5N, P8S, A12G, A13S, P14L, D51G, N52D, N53T IgG (antibody)
# VH: QVQLQQWGAGLLKPSETLSLTCTASGFSLSDKAVGWIRQPPGKGLEWIGSINHSGSTNYNPSLKSRVTISVDTSKNQFSLKLSSVTAADTAVYYCTSVHQETKKYQSPRSAKELRCQCIKTYSKPFHPKFIKELRVIESGPHCANTEIIVKLSDGRELCLDPKENWVQRVVEKFLKRAENSGSGSYTYNYEWHVDVWGQGLLVTVSSAS
# light: B1 light with S2A, T5N, P8S, A12G, A13S, P14L, V29I, G32N, R46K, T47L
# B10: VH4-34+CDR3-IL8_CDR1 Cow / VL1-51 S2A, T5N, P8S, A12G, A13S, P14L, D51G, N52D, N53T IgG (antibody)
# VH: B9 VH with S50E
# light: B1 light with S2A, T5N, P8S, A12G, A13S, P14L, V29I, G32N, R46K, T47L
# B11: VH4-34+CDR3-IL8 / VL1-51 S2A, T5N, P8S, A12G, A13S, P14L, D51G, N52D, N53T IgG (antibody)
# VH: QVQLQQWGAGLLKPSETLSLTCAVYGGSFSGYYWSWIRQPPGKGLEWIGEINHSGSTNYNPSLKSRVTISVDTSKNQFSLKLSSVTAADTAVYYCTSVHQETKKYQSPRSAKELRCQCIKTYSKPFHPKFIKELRVIESGPHCANTEIIVKLSDGRELCLDPKENWVQRVVEKFLKRAENSGSGSYTYNYEWHVDVWGQGLLVTVSSAS
# light: B1 light with S2A, T5N, P8S, A12G, A13S, P14L, V29I, G32N, R46K, T47L
# notes: nt HC 430, LC 444
# Molecular target: T1, CXCR1
# Assay: flow cytometry, supernatant at 5 nM IgG
row,Binder,Specific Binding (CXCR1-Cell median AFU / Parental Cell median AFU)
1,B1,1
2,B2,10
3,B3,1
4,B4,2
5,B5,1
6,B6,2
7,B7,3
8,B8,1

# Molecular target: T1, CXCR1
# Assay: flow cytometry, supernatant at 5 nM IgG
# Remark: another data set of the same source
row,Binder,Specific Binding (CXCR1-Cell median AFU / Parental Cell median AFU)
1,B9,6
2,B10,4
3,B11,3
